Five molecules from US11389516B2, “Composition comprising UNE-L domain of leucyl-tRNA synthetase as effective ingredient for augmenting muscle” (GACHON UNIVERSITY OF INDUSTRY-ACADEMIC COOPERATION …, priority 2017, dated 2022) can be followed below.

Experiment [1] deals with S6K1 phosphorylation (mTORC1 activation). Kind of experiment: Amino acid mediated mTORC1 activation through S6K1 phosphorylation, Western blotting, HEK293 cells treated with SAR405. The class given is cell-based. The protocol:
Particularly, HEK293 cells were transducted with lentivirus expressing LRS shRNA (shLRS) or scrambled sequence shRNA (control). The cells were cultured in DMEM supplemented with 10% fetal bovine serum (FBS) in a 37° C., 5% CO2 incubator for 3 days. As for the LRS shRNA, shLRS-1 (TRCN0000290440) or shLRS-2 (TRCN0000290511) was used. As for the scrambled sequence shRNA, the sRNA previously described (Yoon, et al., J Cell Biol., 2011 195(3); 435-447) was used. Lentivirus packaging and transduction were performed according to the methods described in the following paper (Sun, et al., Proc Natl Acad Sci USA., 2008, 105(24); 8286-8291). The simultaneous expression of Vps15 and Vps34 was necessary for the stability and activity of Vps34, so the cells were transfected with bicistronic Myc-Vps34/V5-Vps15 plasmid (Yan, et al., Biochem J., 2009, 417(3); 747-755), followed by culture in the absence of FBS for overnight. On the next day, the cells were cultured in DMEM without leucine or amino acid for 2 hours, followed by stimulating the cells with 0.8 mM leucine or amino acids at the same concentration as DMEM for 30 minutes. The cell lysate was analyzed by Western blotting according to the conventional method. The intensity of the bands obtained by Western blotting was quantified by measuring the X ray film image density using Image J software.
HEK293 cells were treated with SAR405 (APExBIO, US), a Vps34 specific inhibitor, and then amino acid mediated mTORC1 activation was investigated through S6K1 phosphorylation. […] Western blotting was performed by stimulating cells with amino acids by the same manner as described in Example <1-1> except that HEK293 cells were treated with SAR405 at the concentration of 3 μM and co-transfected with Myc-LRS and Myc-S6K1. At this time, the cells untreated with SAR405 were used as the control. All the quantification data was presented as mean±standard deviation of the values obtained from at least three independent experiments performed separately. Statistical significance was analyzed by student's t-test (*p≤0.05. **p≤0.01).

Experiment [2] concerns the target T1, Vps34 (Mus musculus, UniProt Q6PF93).
T1 construct: endogenous in cells; host or cells: MEF cells
Kind of experiment: In vitro Vps34 lipid kinase assay on Vps34 immune complex from MEF cells with added purified GST protein. It is filed as biochemical. The conditions noted are these: FIG. 7. The protocol:
To perform in vitro Vps34 lipid kinase assay, the Vps34 immunocomplex was washed with PBS containing 1% NP-40 three times, with PBS containing 100 mM Tris (pH 7.4) containing 500 mM LiCl three times, and with TNE buffer (10 mM Tris (pH 7.4), 100 mM NaCl and 1 mM EDTA) twice, then 2 mg/ml of […] and 10 μCi ^32P-γ-ATP (PerkinElmer) were added to TNE buffer. The reaction was terminated by adding 20 μl of 8 N HCl and lipid was extracted with 160 μl of CHCl3:MeOH (1:1). ^32P-PI(3)P was separated on a thin layer chromatography plate (EMD Chemicals Inc.) using CHCl3:MeOH:NH4OH:water (60:47:2:11.3) as a solvent, followed by measuring Vps34 activity by radiograph. The activity of Vps34 was quantified by standardizing the Vps34 amount included in the immune precipitate determined by quantification of Western blotting. To measure the amount of intracellular PI(3)P, ELISA-format assay was performed according to the manufacturer's protocol, leading to quantification of the amount of PI(3)P from nonlinear fitting of the PI(3)P standard. All quantificative data was presented as mean±standard deviation of the values obtained from at least three independent experiments performed separately. Statistical significance was analyzed by student's t-test ([…]. **p≤0.01).
Particularly, MEF cells were cultured in the absence of FBS for overnight. On the next day, the cells were cultured in leucine-free DMEM for 2 hours. Anti-Atg14L antibody was added in the cell lysate thereto, followed by immunoprecipitation to eliminate Atg14L from the cell lysate. Then, anti-Vps34 antibody was added thereto, followed by immunoprecipitation of Vps34. The Vps34 immune complex was placed in TNE buffer supplemented with 2 mg/ml of PI, 10 μCi ^32P-γ-ATP (PerkinElmer) and 3.75 μg of GST protein in the presence or absence of leucine for 20 minutes at 30° C. […] All the quantification data was presented as mean±standard deviation of the values obtained from at least three independent experiments performed separately. Statistical significance was analyzed by student's t-test (*p≤0.05. **p≤0.01).

Experiment [3] relates to S6K1 phosphorylation (mTORC1 activity). Briefly: Western blotting of phosphorylated S6K1 in knock-down HEK293 cells with exogenous phosphatidic acid. The class given is cell-based. As to conditions: 100 μM PA, amino acid stimulation. The protocol:
Particularly, HEK293 cells were transducted with lentivirus expressing LRS shRNA (shLRS) or scrambled sequence shRNA (control). The cells were cultured in DMEM supplemented with 10% fetal bovine serum (FBS) in a 37° C., 5% CO2 incubator for 3 days. As for the LRS shRNA, shLRS-1 (TRCN0000290440) or shLRS-2 (TRCN0000290511) was used. As for the scrambled sequence shRNA, the sRNA previously described (Yoon, et al., J Cell Biol., 2011 195(3); 435-447) was used. Lentivirus packaging and transduction were performed according to the methods described in the following paper (Sun, et al., Proc Natl Acad Sci USA., 2008, 105(24); 8286-8291). […] The cell lysate was analyzed by Western blotting according to the conventional method. The intensity of the bands obtained by Western blotting was quantified by measuring the X ray film image density using Image J software.
Particularly, HEK293 cells were transduced with shLRS, shRagD lentivirus or lentivirus expressing scrambled sequence shRNA (control), and then stimulated with amino acids by the same manner as described in Example <1-1> in the presence or absence of 100 μM phosphatidic acid (PA), a product of PLD1. Lysates of the cells were analyzed by Western blotting according to the method conventionally performed.

For experiment [4], the system named is tibialis anterior (TA). Kind of experiment: Muscle regeneration after BaCl2 induced muscle injury in AAV-UNE-L injected tibialis anterior. As to conditions: expressed from AAV-UNE-L in TA, vs AAV-GFP contralateral. The class given is in vivo, BL6 mice. The protocol:
Particularly, AAV-UNE-L was injected into the left tibialis anterior (TA) of 10-week-old BL6 mice and AAV-GFP was injected into the right tibialis anterior (TA) of 10-week-old BL6 mice, and after 7 weeks, BaCl2 (prepared in saline at the concentration of 1.2% wt/vol: 50 μl) was injected to induce muscle injury (Sun et al., 2011, J. Cell Biol. 192, 69-81). 7 days later, the mice were sacrificed and the tibialis anterior muscles were separated and fixed in 10% paraformaldehyde, followed by embedding in paraffin. The section was performed to the thickness of 10 μm, and the prepared sections were placed on non-coated slides, followed by staining with hematoxylin and eosin (H&E). The stained slides were observed through a 10× dry objective lens of a microscope (Olympus CKX3-Houn Microscope). The stained images were photographed with 24-bit image and the regenarating myofiber cross section area (CSA) was measured by image J. CSA was measured only in the myofibers showing the characteristics of regenerating myofiber with the nucleus in the center.

The subject of experiment [5] is tibialis anterior (TA) muscles. Kind of experiment: Muscle regeneration after BaCl2 induced muscle injury, NP-UNE-L injected with BaCl2. The class given is in vivo, BL6 mice. The conditions noted are these: given as NP-UNE-L with BaCl2 into TA, vs NP in contralateral TA, 7 days, FIG. 16. The protocol: Particularly, BaCl2 (prepared in saline at the concentration of 1.2% wt/vol: 50 μl) was injected into the tibialis anterior (TA) muscles of 10-week-old BL6 mice to induce muscle injury (Sun et al., 2011, J. Cell Biol. 192, 69-81). NP-UNE-L was injected with BaCl2 on the left side and NP was injected with BaCl2 on the right side. 7 days later, the mice were sacrificed and the tibialis anterior muscles were separated and placed in 2-methylbutane which was coldly prepared in liquid nitrogen, followed by embedding in TBS tissue freezing medium. Cryosection was performed at −20° C. to the thickness of 10 μm by using a cryostat (Microm HM550; Thermo Fisher Scientific). The prepared sections were placed on non-coated slides, followed by staining with hematoxylin and eosin (H&E). The stained slides were observed through a 10× dry objective lens of a microscope (DMI 4000B; Leica). The stained images were photographed with a 24-bit image camera (RETIGA EXi; Q Imaging) and the regenarating myofiber cross section area (CSA) was measured by image J. CSA was measured only in the myofibers showing the characteristics of regenerating myofiber with the nucleus in the center.

The subject of experiment [6] is C2C12 cells. Kind of experiment: MHC/DAPI immunostaining of differentiated C2C12 cells (differentiation index, fusion index, myotube size). As to conditions: given as NP-UNE-L, three days differentiation, FIG. 15. It is filed as cell-based, mouse. The protocol:
Particularly, to investigate the role of the UNE-L domain of LRS, NP-UNE-L was constructed by binding the UNE-L domain of LRS to nanoparticles (NP) through the conventional method.
C2C12 cells, the mouse muscle cells, were maintained in DMEM supplemented with 4.5 g/l of glucose and 10% FBS in a 37° C., 7.5% CO2 incubator. To induce myogenesis, the cells were cultured on a plate coated with 0.2% gelatin until 100% confluence and the culture medium was replaced with the differentiation-inducing medium containing 2% horse serum. The culture medium was replaced every day for 3 days. During differentiation for three days, the differentiation-inducing medium treated group, the differentiation-inducing medium and NP-UNE-L treated group, and the differentiation-inducing medium and NP treated group were compared.
After the differentiation of C2C12 cells for three days, Western blotting was performed with the cell lysate according to the conventional method. To compare the differentiation level of C2C12 cells, C2C12 cells were fixed and immunostained with MHC, a myocyte differentiation marker, and 4′,6-diamidino-2-phenylindole (DAPI), a cell nucleus marker (Yoon et al. 2013 Molecular biology of the cell, 24(23) 3754-3763). […] The differentiation index was calculated as the percentage of nuclei in the myotubes stained with MHC and the fusion index was calculated as the percentage of nuclei in the myotubes with two or more nuclei stained with MHC. The myotube size was calculated as the number of nuclei in the myotube stained with MHC.

T1 sequence (Q6PF93 whole entry): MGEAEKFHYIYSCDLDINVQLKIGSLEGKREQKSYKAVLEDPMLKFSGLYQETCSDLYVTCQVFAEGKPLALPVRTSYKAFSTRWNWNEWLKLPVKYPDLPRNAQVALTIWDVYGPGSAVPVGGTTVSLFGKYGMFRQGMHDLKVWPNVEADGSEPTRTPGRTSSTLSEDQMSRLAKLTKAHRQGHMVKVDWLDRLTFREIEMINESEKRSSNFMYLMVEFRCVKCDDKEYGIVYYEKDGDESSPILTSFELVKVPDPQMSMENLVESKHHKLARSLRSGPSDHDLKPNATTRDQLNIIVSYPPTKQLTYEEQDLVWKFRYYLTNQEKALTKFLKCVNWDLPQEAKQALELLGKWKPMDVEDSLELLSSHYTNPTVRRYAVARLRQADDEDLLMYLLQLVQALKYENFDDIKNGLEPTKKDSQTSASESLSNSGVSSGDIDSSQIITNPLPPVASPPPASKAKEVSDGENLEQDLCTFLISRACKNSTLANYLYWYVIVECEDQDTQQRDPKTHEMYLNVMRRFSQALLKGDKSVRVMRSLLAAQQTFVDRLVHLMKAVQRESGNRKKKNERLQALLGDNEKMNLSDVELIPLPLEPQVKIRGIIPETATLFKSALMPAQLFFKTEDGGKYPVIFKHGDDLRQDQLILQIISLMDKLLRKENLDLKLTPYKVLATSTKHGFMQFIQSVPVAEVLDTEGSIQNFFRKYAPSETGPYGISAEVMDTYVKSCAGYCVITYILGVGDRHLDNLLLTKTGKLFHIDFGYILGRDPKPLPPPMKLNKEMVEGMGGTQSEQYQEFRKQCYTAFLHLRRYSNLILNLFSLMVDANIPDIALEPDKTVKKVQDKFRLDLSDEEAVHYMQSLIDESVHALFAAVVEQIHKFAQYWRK
T1 sequence (Q8VD65 whole entry partner): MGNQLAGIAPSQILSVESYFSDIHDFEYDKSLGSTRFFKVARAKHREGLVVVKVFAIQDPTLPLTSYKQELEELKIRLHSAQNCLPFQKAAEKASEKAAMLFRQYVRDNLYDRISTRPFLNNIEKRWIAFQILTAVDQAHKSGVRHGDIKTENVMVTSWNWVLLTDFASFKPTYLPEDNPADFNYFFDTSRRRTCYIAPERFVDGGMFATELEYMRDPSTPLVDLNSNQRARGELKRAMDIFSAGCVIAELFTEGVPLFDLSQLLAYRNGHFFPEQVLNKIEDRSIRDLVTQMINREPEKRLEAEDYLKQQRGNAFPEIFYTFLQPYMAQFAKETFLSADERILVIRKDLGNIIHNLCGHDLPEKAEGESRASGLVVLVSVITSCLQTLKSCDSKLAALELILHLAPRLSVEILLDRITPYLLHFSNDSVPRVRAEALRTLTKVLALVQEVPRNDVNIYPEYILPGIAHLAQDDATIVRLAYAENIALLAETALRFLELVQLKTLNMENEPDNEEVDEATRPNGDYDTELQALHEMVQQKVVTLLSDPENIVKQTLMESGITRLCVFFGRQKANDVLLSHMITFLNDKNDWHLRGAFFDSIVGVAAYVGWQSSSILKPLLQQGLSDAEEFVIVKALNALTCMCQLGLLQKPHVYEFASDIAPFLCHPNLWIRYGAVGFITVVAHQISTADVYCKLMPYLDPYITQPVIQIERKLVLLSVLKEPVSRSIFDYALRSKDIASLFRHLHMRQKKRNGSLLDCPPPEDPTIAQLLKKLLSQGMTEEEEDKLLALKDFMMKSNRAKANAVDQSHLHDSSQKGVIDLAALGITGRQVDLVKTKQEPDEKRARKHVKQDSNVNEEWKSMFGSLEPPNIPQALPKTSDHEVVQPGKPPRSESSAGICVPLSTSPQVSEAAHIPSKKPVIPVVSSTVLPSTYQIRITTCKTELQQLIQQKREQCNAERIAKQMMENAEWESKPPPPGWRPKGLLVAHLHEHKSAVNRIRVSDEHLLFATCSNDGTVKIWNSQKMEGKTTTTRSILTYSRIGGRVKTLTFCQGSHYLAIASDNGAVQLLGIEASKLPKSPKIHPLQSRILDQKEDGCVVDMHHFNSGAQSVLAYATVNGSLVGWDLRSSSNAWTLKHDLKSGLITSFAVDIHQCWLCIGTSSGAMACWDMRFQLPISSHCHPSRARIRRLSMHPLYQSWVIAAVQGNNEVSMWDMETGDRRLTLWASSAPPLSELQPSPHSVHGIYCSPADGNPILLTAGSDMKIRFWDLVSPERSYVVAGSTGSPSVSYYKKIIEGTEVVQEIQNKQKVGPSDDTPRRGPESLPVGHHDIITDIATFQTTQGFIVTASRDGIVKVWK

With `C[C@@H]1COCCN1c1cc(=O)n2c(n1)N(Cc1cncc(Cl)c1)[C@H](C(F)(F)F)CC2` [SAR405], the “S6K1 phosphorylation increased by LRS overexpression” value in experiment [1] (HEK293 cells co-transfected with Myc-LRS and Myc-S6K1, SAR405 3 μM, FIG. 3C) is listed as “reduced”. Further, the “S6K1 phosphorylation induced by total amino acids” value in experiment [1] (HEK293 cells, FIG. 3B) is on record as “reduced”. In addition, the “concentration at which S6K1 phosphorylation was completely inhibited” value in experiment [1] (HEK293 cells, tested at 0.1, 0.3, 1, 3 and 10 μM, amino acid stimulation) was determined as 3 µM.

Regarding “GST-LRS protein: purified GST-LRS (leucyl-tRNA synthetase) protein expressed in E. coli BL21”, the “activity of Vps34 compared to the GST control” value in experiment [2] (purified protein added to Vps34 immune complex) is given as “about 3 times”. The “activity of Vps34 with leucine stimulation” value in experiment [2] (purified protein added to Vps34 immune complex, in the presence of leucine) was “further increased”.

Turning to “LRS mutation (F50A/Y52A): leucine binding deficient mutant of LRS”, in experiment [2] (regardless of the presence or absence of leucine stimulation), the “activation of Vps34” value is reported as “did not induce the activation of Vps34”.

For the molecule phosphatidic acid [PA], the “amount of phosphorylated S6K1” value in experiment [3] (LRS knocked-down, FIG. 11) is recorded as “increased again”. Moreover, the “amount of S6K1 phosphorylated” value in experiment [3] (both LRS and RagD knocked-down) was “partially increased”.

B1: UNE-L domain of LRS: UNE-L domain of leucyl-tRNA synthetase C-terminus, polypeptide of the amino acid sequence SEQ. ID. NO: 1 (protein, listed as Homo sapiens)
chain: PGVSVSLVNPQPSNGHFSTKIEIRQGDNCDSIIRRLMKMNRGIKDLSKVKLMRFDDPLLGPRRVPVLGKEYTEKTPISEHAVFNVDLMSKKIHLTENGIRVDIGDTIIYLVH
B1: the “CSA of the muscle fibers generated during muscle regeneration” value in experiment [4] (BaCl2 after 7 weeks, 7 days later, FIGS. 18A and 18B) is reported as “increased”. In addition, in experiment [4] (FIG. 18C), the “mean value of CSA” value is “increased significantly”. The “CSA of the muscle fibers generated during muscle regeneration” value in experiment [5] is “increased”. Moreover, in experiment [6], the “differentiation index of C2C12 cells” value is recorded as “increased”, the “fusion index of C2C12 cells” value is reported as “increased” and the myotube size result is reported as “increased”.
